Stoichiometry N data for three substances are collected here from paper PMC11170914, “A distinct dimer configuration of a diatom Get3 forming a tetrameric complex with its tail-anchored membrane cargo” (BMC Biology, 2024).

Assay [1] has as its target Pt-Get3a wild type, co-expressed with His-tagged TA protein (Phaeodactylum tricornutum). The assay is described as follows: SAXS; HPLC with online size exclusion column, beamline BL23A1 (NSRRC), proteins ~5 mg/mL; P2 symmetry for the dimer, p222 for the Pt-Get3a/TA complex.
Assay [2] shares this target. The assay is described as follows: SEC; Pt-Get3a/TA complex co-expressed and co-purified by Ni-NTA, then Superdex-200; ~100 mM NaCl and, as a control, 500 mM NaCl; fractions on SDS-PAGE. On the technique in general: SEC sorts molecules by how far they enter the pores of the column.
Assay [3] deals with Pt-Get3a L283D_I290D, purified (Phaeodactylum tricornutum). Kind of assay: SEC; purified Pt-Get3a (after TEV cleavage of the 6His-tag) or its mutants alone; near physiological saline, ~100 mM NaCl; tetramer-dimer equilibrium.
The target of assay [4] is Pt-Get3a (full-length, amino acids 1–349), purified, His-tag cleaved (Phaeodactylum tricornutum). Kind of assay: SAXS; HPLC with online size exclusion column, beamline BL23A1 (NSRRC), proteins ~5 mg/mL; P2 symmetry for the dimer, p222 for the Pt-Get3a/TA complex.
For assay [5] the target is unchanged. Kind of assay: SEC; purified Pt-Get3a (after TEV cleavage of the 6His-tag) or its mutants alone; near physiological saline, ~100 mM NaCl; tetramer-dimer equilibrium.
The target is the same in assay [6]. Kind of assay: SEC; purified Pt-Get3a alone; NaCl increased to 500 mM; peak at ~78 mL.

Several values for one entry are separate records, joined by “and”; a condition that tells them apart may be missing. Equal values may be shown once.

Turning to “Pt-Get3a wild type, co-expressed with His-tagged TA protein (natural protein)”, the stoichiometry N (usually a count of units in the complex or per binding partner) is 4 in assay [1]; 4 and 2 in assay [2].
“Pt-Get3a L283D_I290D, purified (natural protein)”: the stoichiometry N in assay [3] stood at 2.
Take “Pt-Get3a (full-length, amino acids 1–349), purified, His-tag cleaved (natural protein)”: the stoichiometry N in assay [4] is 2; in assay [5], 4; in assay [6] it was 2.
